# Test results published in publication PMC4102529, “FRET Based Quantification and Screening Technology Platform for the Interactions of Leukocyte Function-Associated Antigen-1 (LFA-1) with InterCellular Adhesion Molecule-1 (ICAM-1)” (PLoS ONE, 2014).
# Tested on: LFA-1 (αLβ2)
# Test: Steady-state in-solution FRET binding assay (Alexa Fluor 488-LFA-1 donor / Alexa Fluor 555-D1-D2-Fc acceptor) to determine Kd
# Design: species or system human
# Description: In determining the equilibrium dissociation constant (Kd) between the interacting protein pairs, LFA-1 and D1-D2-Fc, from the FRET binding assay, several concentrations of the acceptor conjugate, Alexa Fluor 555-D1-D2-Fc, were added to a fixed concentration of the donor conjugate, Alexa Fluor 488-LFA-1. The donor conjugate concentration was kept constant at 100 nM while the acceptor conjugate concentration was varied from 0 upto 1.6 µM. These FRET mixtures, with different donor-to-acceptor ratios, were excited by 470 and 530 nm. […] The peak intensity at 570 nm has contributions from unquenched donor emissions, direct acceptor emission and the emission of acceptor due to FRET (FFRET). However, when the FRET mixture was excited with 530 nm, only a single peak corresponding to the direct emission of the acceptor (FA) was observed.
# Thus, to obtain the absolute maximum FRET emission signal at 570 nm (FFRETmax), we need to quantify each contribution from the donor and acceptor emissions as well as the FRET emission signal (FFRET). […]
# In general, the direct emission of Alexa Fluor 488-LFA-1 at 570 nm is expected to be proportional to its emission at 520 nm when excited at 470 nm. […] The calculated value of “b” was 0.101±0.008. […]
molecule,measurement,setting,value
"D1-D2-Fc: chimeric molecule consisting of the amino-terminal first two Ig domains of human ICAM-1 (D1-D2) fused to IgG1 Fc region (protein, Alexa Fluor 555 (succinimidyl ester) on amine groups (amine terminus, ε-amino groups of lysines), random; F/P molar ratio 3.14±0.27; left off: Fc (IgG1), end not stated, kept, chimeric molecule consisting of the amino-terminal first two Ig domains of human ICAM-1 (D1-D2) fused to IgG1 Fc region) QTSVSPSKVILPRGGSVLVTCSTSCDQPKLLGIETPLPKKELLLPGNNRKVYELSNVQEDSQPMCYSNCPDGQSTAKTFLTVYWTPERVELAPLPSWQPVGKNLTLRCQVEGGAPRANLTVVLLRGEKELKREPAVGEPAEVTTTVLVRRDHHGANFSCRTELDLRPQGLELFENTSAPYQLQTFVLPATPPQLVSPRVLEVDTQGTVVCSLDGLFPVSEAQVHLALGDQRLNPTVTYGNDSFSAKASVSVTAEDEGTQRLTCAVILGNQSQETLQTVTIYSFPAPNVILTKPEVSEGTEVTVKCEAHPRAKVTLNGVPAQPLGPRAQLLLKATPEDNGRSFSCSATLEVAGQLIHKNQTRELRVLYGPRLDERDCPGNWTWPENSQQTPMCQAWGNPLPELKCLKDGTFPLPIGESVTVTRDLEGTYLCRARSTQGEVTRKVTVNVLSPRYEIVIITVVAAAVIMGTAGLSTYLYNRQRKIKKYRLQQAQKGTPMKPNTQATPP",maximum FRET emission signal (FFRETmax),"at 570 nm, 100 nM Alexa Fluor 488-LFA-1, Alexa Fluor 555-D1-D2-Fc 0 to 1.6 µM, fit of Eq. (6), adj. R-square = 0.9895",6.33×10^3 RFU
same,Kd,"steady-state FRET, 100 nM Alexa Fluor 488-LFA-1 fixed, Alexa Fluor 555-D1-D2-Fc 0 to 1.6 µM, PBS, pH 7.4, 1 mM EGTA, 2 mM Mg^2+, 50 µl, 96-well plate, excitation 470 nm, emission 520/570 nm, nonlinear fit Eq. (6), one-to-one, data points mean (rms) of 9 measurements, 3 samples, read-out: dissociation constant (Kd) of the LFA-1/D1-D2-Fc interaction",17.9 ± 1.34 nM
